In PMC11273609, “Single-Molecule Detection of the Encounter and Productive Electron Transfer Complexes of a Photosynthetic Reaction Center” (Journal of the American Chemical Society, 2024):

Columns and labels:
Conditions in all cases: both partners purified
[1] = biological target: T1, wild-type reaction center-light harvesting complex 1 (RC-LH1), His10-tag on the RC H-subunit (Rhodobacter sphaeroides, UniProt P0C0Y7 1-260; P0C0Y8 1-282; P0C0Y9 1-308; P0C0X9 1-55; P0C0Y1 7-49; P13402 1-82); test: single-molecule force spectroscopy (AFM, PF-QNM); cyt c2-His6 on the AFM probe, His10-tagged RC-LH1 on the SiOx substrate; oxidized RC-LH1, oxidized cyt c2 (probe treated with 0.8 mM potassium ferricyanide); 10 mM HEPES pH 7.4, 10 mM NaCl
[2] = biological target: T2, D(M184)K mutant RC-LH1 complex, His10-tag on the RC H-subunit (Rhodobacter sphaeroides, UniProt P0C0Y7 1-260; P0C0Y8 1-282; P0C0Y9 1-308; P0C0X9 1-55; P0C0Y1 7-49; P13402 1-82, D(M184)K); test: as above
[3] = biological target: T3, Q(L264)E mutant RC-LH1 complex, His10-tag on the RC H-subunit (Rhodobacter sphaeroides, UniProt P0C0Y7 1-260; P0C0Y8 1-282; P0C0Y9 1-308; P0C0X9 1-55; P0C0Y1 7-49; P13402 1-82, Q(L264)E); test: as above
[4] = biological target: T4, N(M188)D mutant RC-LH1 complex, His10-tag on the RC H-subunit (Rhodobacter sphaeroides, UniProt P0C0Y7 1-260; P0C0Y8 1-282; P0C0Y9 1-308; P0C0X9 1-55; P0C0Y1 7-49; P13402 1-82, N(M188)D); test: as above
[5] = biological target: T1, wild-type reaction center-light …; test: single-molecule force spectroscopy (AFM, PF-QNM); cyt c2-His6 on the AFM probe via Ni2+-NTA and a PEG linker, His10-tagged RC-LH1 or RC-only complexes on a Ni2+-NTA SiOx substrate; oxidized RC, reduced cyt c2; 10 mM HEPES pH 7.4, 10 mM NaCl
[6] = biological target: T2, D(M184)K mutant RC-LH1 complex, …; test: as above
[7] = biological target: T3, Q(L264)E mutant RC-LH1 complex, …; test: as above
[8] = biological target: T4, N(M188)D mutant RC-LH1 complex, …; test: as above

cumulative interaction probability [2]: 20% | cumulative interaction probability [3]: 36% | cumulative interaction probability [4]: 37% | cumulative interaction probability [6]: 24% | cumulative interaction probability [7]: 39% | cumulative interaction probability [8]: 40%
B1: cytochrome c2 (cyt c2), His6-tagged (natural protein)
chain: QEGDPEAGAKAFNQCQTCHVIVDDSGTTIAGRNAKTGPNLYGVVGRTAGTQADFKGYGEGMKEAGAKGLAWDEEHFVQYVQDPTKFLKEYTGDAKAKGKMTFKLKKEADAHNIWAYLQQVAVRP
notes: cytochrome c2 of Rhodobacter sphaeroides (gene cycA); the His6-tag follows the C-terminal residue Pro124; Carries a heme cofactor; used pre-reduced (dithionite and phenazine methosulfate) or pre-oxidized (ferricyanide), the redox state is told in the assay; also called reduced cyt c2; oxidized cyt c2; not shown: His6, C-terminal, kept
cumulative interaction probability [1]: 32% | cumulative interaction probability [5]: ~34%
